# Literature values, collected in publication PMC3094721.
# Biological target: ChemR23 (Homo sapiens) (UniProt Q99788)
# Experiment: radioligand
# Sequence of ChemR23 (Homo sapiens) (Q99788 whole entry): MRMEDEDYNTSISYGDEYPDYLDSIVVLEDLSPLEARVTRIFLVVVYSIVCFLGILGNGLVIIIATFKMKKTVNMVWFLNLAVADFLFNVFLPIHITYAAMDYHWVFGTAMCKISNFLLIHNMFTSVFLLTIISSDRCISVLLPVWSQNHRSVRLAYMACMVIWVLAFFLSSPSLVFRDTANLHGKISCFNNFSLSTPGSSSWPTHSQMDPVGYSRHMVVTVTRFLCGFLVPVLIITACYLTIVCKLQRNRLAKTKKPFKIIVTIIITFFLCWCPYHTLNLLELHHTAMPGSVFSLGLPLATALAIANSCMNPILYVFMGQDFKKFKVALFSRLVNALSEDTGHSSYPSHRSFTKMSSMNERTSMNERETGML
# Sequence of chemerin peptide (Q99969 21-157): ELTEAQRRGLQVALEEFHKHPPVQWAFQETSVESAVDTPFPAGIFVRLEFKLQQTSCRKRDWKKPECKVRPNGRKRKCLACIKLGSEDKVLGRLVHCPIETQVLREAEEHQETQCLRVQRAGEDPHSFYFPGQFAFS
substance,measurement,value
chemerin peptide (from UniProt Q99969),Ki,429 nM
